According to US20200347130A1 (JIANGSU HENGRUI MEDICINE, published 2020):
Where a chain is given by its changes, count along the chain named.

T1: CD96 extracellular region with His tag (CD96-His) (human, UniProt P40200 22-519)
T1 construct: also called CD96-ECD-His; Bio-CD96-His (biotin-labelled form)
T1 sequence: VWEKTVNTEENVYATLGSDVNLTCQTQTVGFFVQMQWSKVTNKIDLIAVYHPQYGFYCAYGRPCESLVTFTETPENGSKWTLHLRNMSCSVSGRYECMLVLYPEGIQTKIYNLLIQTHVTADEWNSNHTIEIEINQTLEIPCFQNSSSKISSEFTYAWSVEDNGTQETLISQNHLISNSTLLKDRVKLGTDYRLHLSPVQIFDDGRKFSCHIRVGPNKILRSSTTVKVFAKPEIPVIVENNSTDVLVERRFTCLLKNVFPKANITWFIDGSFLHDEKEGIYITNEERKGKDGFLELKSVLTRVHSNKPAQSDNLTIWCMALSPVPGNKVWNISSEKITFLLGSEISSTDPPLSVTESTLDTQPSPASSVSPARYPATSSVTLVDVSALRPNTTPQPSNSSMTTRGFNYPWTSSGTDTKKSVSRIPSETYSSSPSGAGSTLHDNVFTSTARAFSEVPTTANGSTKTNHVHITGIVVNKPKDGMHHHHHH

B1: h1722-007 (antibody, V domains shown)
VH: EVQLVQSGAEVKKPGSSVKVSCKASGGTFSDYWMHWVKQAPGQGLEWIGMLHPNSGTTSFNEKFKIRVTITIDKSTSTAYMELSSLRSEDTAVYYCASDYSGPFAYWGQGTLVTVSS
VL: DIQMTQSPSSLSASVGDRVTITCSASSSVNYIHWYQQKPGKAPKRWIYDTSKLASGVPSRFSGSGSGTDFTLTISSLQPEDFATYYCQQWRSNPLTFGQGTKLEIK
notes: Only variable regions are tied to this name
B2: h1722-012 (antibody, V domains shown)
VH: B1 VH with G27N, V68T
VL: B1 VL with M4L, Y48F, F70Y
notes: as for B1
B3: h1722-009 (antibody, V domains shown)
VH: B1 VH with K38R, I48M, I72A, S98R
VL: B1 VL with M4L, Y48F, F70Y
notes: as for B1
B4: h1722-011 (antibody, V domains shown)
VH: B1 VH
VL: B1 VL with M4L, Y48F, F70Y
notes: as for B1
B5: h1722-008 (antibody, V domains shown)
VH: B1 VH with G27N, V68T
VL: B1 VL
notes: as for B1
B6: h1721-007 (antibody, V domains shown)
VH: EVTLKESGPVLVKPTETLTLTCTVSGFSLSSYGVNWIRQPPGKALEWLGVIWGDGSTNYHSALISRLTISKDTSKSQVVLTLTNMDPVDTATYYCAKNYFYGSRYGYAMDSWGQGTTVTVSS
VL: DIQMTQSPSSLSASVGDRVTITCRASENIYSSLAWYQQKPGKAPKLLVYNAKTLIEGVPSRFSGSGSGTDYTLTISSLQPEDFATYYCQHHYGTPYTFGGGTKVEIK
notes: as for B1
B7: h1721-006 (antibody, V domains shown)
VH: B6 VH with L82M
VL: B6 VL
notes: as for B1
B8: h1721-004 (antibody, V domains shown)
VH: B6 VH with I37V, A44G
VL: B6 VL with V48I, Y71F
notes: as for B1
B9: h1721-002 (antibody, V domains shown)
VH: B6 VH with L82M
VL: B6 VL with V48I, Y71F
notes: as for B1
B10: h1721-001 (antibody, V domains shown)
VH: B6 VH with G49A, L82M, K97R
VL: B6 VL with V48I, Y71F
notes: as for B1
B11: h1721-010 (antibody, V domains shown)
VH: B6 VH with L82M
VL: B6 VL with A43S
notes: as for B1
B12: h1721-012 (antibody, V domains shown)
VH: B6 VH with I37V, A44G
VL: B6 VL with A43S
notes: also called h1721-0012
B13: h1721-009 (antibody, V domains shown)
VH: B6 VH with G49A, L82M, K97R
VL: B6 VL with A43S
notes: as for B1
B14: h1721-005 (antibody, V domains shown)
VH: B6 VH with G49A, L82M, K97R
VL: B6 VL
notes: as for B1
B15: h1721-008 (antibody, V domains shown)
VH: B6 VH with I37V, A44G
VL: B6 VL
notes: as for B1
B16: h1721-011 (antibody, V domains shown)
VH: B6 VH
VL: B6 VL with A43S
notes: as for B1
B17: h1719-007 (antibody, V domains shown)
VH: EVTLKESGPVLVKPTETLTLTCTVSGFSLSSYGVSWVRQPPGKGLEWLGVIWGDGNTNYHSVLISRLTISKDTSKSQVVLTLTNMDPVDTATYYCAKQNYYGSRYGYPLDYWGQGTTVTVSS
VL: DIQMTQSPSSVSASVGDRVTITCKATQDVGTAVAWYQQKPGKAPKLLIYWASTRHTGVPSRFSGSGSGTDFTLTISSLQPEDFATYYCQQYGSSVLTFGGGTKVEIK
notes: as for B1
B18: h1719-016 (antibody, V domains shown)
VH: B17 VH with L109I
VL: B17 VL with A43S, S60E, Y87F
notes: as for B1
B19: h1719-013 (antibody, V domains shown)
VH: B17 VH
VL: B17 VL with A43S, S60E, Y87F
notes: as for B1
B20: h1719-008 (antibody, V domains shown)
VH: B17 VH with Q98N, N99Y
VL: B17 VL
notes: as for B1
B21: h1718-007 (antibody, V domains shown)
VH: EVQLVQSGAEVKKPGASVKVSCKASGYTITDYNMNWVRQAPGQRLEWIGVINPSYGITDYNQNFKDRVTITVDTSASTAYMELSSLRSEDTAVYYCAIQLRLPGYFDVWGQGTTVTVSS
VL: DIQMTQSPSSLSASVGDRVTITCKASQDINNYLNWFQQKPGKAPKTLIYRANRLVDGVPSRFSGSGSGQDYTLTISSLQPEDFATYYCLKYDEFPYTFGGGTKVEIK
notes: as for B1
B22: h1718-013 (antibody, V domains shown)
VH: B21 VH
VL: B21 VL with N31T
notes: as for B1
B23: h1718-020 (antibody, V domains shown)
VH: B21 VH with R38K, R67K
VL: B21 VL with N31L
notes: as for B1
B24: h1718-014 (antibody, V domains shown)
VH: B21 VH
VL: B21 VL with N31L
notes: as for B1
B25: h1718-008 (antibody, V domains shown)
VH: B21 VH with R38K, R67K
VL: B21 VL
notes: as for B1
B26: h1718-018 (antibody, V domains shown)
VH: B21 VH with R38K, R67K
VL: B21 VL with N31Q
notes: as for B1
B27: h1718-019 (antibody, V domains shown)
VH: B21 VH with R38K, R67K
VL: B21 VL with N31T
notes: as for B1

Target: T1, CD96 extracellular region with His tag …
Experiment: SPR (Biacore), antibody captured, CD96-ECD-His as mobile phase
Text: Protein A biosensor chip was used to capture antibodies to be tested, then CD96 antigen was flowed on the surface of the chip, and real time reaction signal was detected by Biacore to obtain the binding and dissociation curve. After the dissociation of each experimental cycle was completed, the biosensor chip was washed and regenerated with a glycine-hydrochloric acid regeneration solution (pH 1.5).

Row | Kd | Binder
1 | 1.31 nM | B1
2 | 0.781 nM | B2
3 | 4.55 nM | B3
4 | 0.948 nM | B4
5 | 1 nM | B5
6 | 1.87 nM | B6
7 | 2.29 nM | B7
8 | 2 nM | B8
9 | 2.2 nM | B9
10 | 2.73 nM | B10
11 | 2.04 nM | B11
12 | 2.14 nM | B12
13 | 2.01 nM | B13
14 | 2.25 nM | B14
15 | 2.22 nM | B15
16 | 2.12 nM | B16
17 | 25.5 nM | B17
18 | 90.7 nM | B18
19 | 19.8 nM | B19
20 | 17.6 nM | B20
21 | 3.88 nM | B21
22 | 4.08 nM | B22
23 | 3.41 nM | B23
24 | 4.31 nM | B24
25 | 3.37 nM | B25
26 | 3.82 nM | B26
27 | 3.7 nM | B27
